In paper PMC3001952:

Molecular target: single chain trimer version of HLA-Cw6, normal length
Assay: cell-cell conjugate formation by flow cytometry; PKH26-labelled NKL cells (or KIR2DL1-expressing NKL cells) mixed with equal numbers of PKH67-labelled P815 transfectants, 30 min, fixed with 1% paraformaldehyde; percentage of NKL cells forming conjugates

- percent of NKL cells forming conjugates: > 50%
Substance: KIR2DL1-CFP on NKL cells (from UniProt P43626 22-348) (receptor)
